This is an account of results in patent publication US20220340682A1 (Sanofi, published 2022).

For assay [1], the target named is T1, hCEACAM5, human CEACAM5 ECD (35-685) (human, UniProt P06731 35-685).
T1 construct: produced in HEK293; also called human CEACAM5 protein; human CEACAM5 extracellular domain
T1 sequence: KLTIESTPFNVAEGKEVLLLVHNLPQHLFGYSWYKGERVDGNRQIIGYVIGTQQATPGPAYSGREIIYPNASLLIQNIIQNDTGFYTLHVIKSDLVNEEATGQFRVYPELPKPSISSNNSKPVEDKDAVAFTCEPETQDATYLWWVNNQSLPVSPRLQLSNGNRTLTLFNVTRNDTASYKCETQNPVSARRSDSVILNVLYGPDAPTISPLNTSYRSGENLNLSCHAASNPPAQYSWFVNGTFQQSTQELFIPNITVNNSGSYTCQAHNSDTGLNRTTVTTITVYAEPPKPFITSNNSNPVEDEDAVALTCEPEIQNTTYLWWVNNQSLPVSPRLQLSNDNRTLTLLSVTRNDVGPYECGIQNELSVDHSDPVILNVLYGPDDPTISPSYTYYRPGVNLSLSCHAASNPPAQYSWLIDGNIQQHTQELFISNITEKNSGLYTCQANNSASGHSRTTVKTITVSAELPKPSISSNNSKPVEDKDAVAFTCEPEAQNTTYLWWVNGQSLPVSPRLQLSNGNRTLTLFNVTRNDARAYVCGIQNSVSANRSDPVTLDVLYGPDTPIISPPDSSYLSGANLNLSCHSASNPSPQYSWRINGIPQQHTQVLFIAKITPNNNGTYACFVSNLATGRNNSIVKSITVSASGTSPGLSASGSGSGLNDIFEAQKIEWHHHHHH
The assay is described as follows: ELISA, coated CEACAM5. How it is done:
(§1) All CEACAM5-specific mAbs were assessed for their ability to bind human and primate CEACAM5 protein by ELISA. Plates were coated with human or primate CEACAM5 protein, anti-hCEACAM5 mAbs were added to the plate and detected with rabbit anti-mouse IgG conjugated with horseradish peroxidase (Sigma; # A9044). The antibody binding was visualized by adding TMB-H2O2 buffer and read at a wavelength of 450 nm.

The target in assay [2] is T2, cCEACAM5, M. fascicularis CEACAM5 ECD (35-688) (Macaca fascicularis).
T2 construct: ECD followed by a 24 amino acid extension containing a His-Tag; also called cynomolgus CEACAM5; monkey CEACAM5
T2 chain: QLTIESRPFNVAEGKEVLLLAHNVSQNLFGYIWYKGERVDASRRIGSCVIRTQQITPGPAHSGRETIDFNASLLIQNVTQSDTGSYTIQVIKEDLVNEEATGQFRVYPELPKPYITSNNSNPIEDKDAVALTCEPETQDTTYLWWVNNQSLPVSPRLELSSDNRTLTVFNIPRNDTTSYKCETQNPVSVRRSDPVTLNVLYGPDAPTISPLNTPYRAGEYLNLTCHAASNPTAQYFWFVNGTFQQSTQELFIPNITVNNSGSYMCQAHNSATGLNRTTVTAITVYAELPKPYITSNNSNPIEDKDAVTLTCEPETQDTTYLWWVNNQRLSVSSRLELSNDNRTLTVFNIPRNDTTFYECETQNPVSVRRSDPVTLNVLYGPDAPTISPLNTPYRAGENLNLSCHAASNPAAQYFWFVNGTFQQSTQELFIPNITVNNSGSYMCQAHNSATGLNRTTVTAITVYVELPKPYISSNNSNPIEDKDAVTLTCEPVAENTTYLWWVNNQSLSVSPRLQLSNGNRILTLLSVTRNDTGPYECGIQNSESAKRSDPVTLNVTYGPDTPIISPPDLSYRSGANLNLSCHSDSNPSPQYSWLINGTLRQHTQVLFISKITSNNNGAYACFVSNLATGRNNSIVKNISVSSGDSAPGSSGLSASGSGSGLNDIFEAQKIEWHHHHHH
Briefly: ELISA, coated CEACAM5. How it is done: as §1

In assay [3] the target is T2, cCEACAM5, M. fascicularis CEACAM5 ECD …. Briefly: ELISA, murine hybridoma mAb.
For assay [4], the target named is T1, hCEACAM5, human CEACAM5 ECD (35-685). Briefly: ELISA, murine hybridoma mAb.
Assay [5] shares this target. The assay is described as follows: ELISA.
In assay [6] the target is T3, cCEACAM1, M. fascicularis CEACAM1 ECD (35-428) (Macaca fascicularis).
T3 construct: With 24 amino acid extension containing a His-Tag; also called cynomolgus CEACAM1
T3 chain: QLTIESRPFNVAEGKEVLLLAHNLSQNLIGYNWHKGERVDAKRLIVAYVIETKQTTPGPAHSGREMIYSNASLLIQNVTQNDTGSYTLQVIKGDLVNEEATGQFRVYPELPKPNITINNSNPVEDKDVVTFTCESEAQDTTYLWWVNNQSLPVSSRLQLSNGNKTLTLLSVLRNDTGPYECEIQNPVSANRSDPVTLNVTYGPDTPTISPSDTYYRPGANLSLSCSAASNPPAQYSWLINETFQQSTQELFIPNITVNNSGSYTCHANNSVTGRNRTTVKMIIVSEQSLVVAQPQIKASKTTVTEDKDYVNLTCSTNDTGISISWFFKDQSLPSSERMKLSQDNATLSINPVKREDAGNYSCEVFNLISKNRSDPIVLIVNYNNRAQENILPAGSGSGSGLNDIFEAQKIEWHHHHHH
Briefly: ELISA.

Assay [7] has as its target T4, cCEACAM6, M. fascicularis CEACAM6 ECD (35-327) (Macaca fascicularis).
T4 construct: With 24 amino acid extension containing a His-Tag; also called cynomolgus CEACAM6
T4 chain: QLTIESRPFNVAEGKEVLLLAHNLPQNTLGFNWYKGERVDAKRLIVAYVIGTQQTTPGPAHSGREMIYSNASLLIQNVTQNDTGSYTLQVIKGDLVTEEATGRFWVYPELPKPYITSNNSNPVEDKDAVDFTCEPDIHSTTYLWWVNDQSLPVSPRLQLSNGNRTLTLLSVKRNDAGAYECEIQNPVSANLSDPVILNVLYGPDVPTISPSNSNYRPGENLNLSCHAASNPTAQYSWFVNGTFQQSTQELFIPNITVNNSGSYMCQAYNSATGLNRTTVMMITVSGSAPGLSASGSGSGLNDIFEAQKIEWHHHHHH
The assay is described as follows: ELISA.

B1: antibody MAb1 (antibody, IgG1, V domains shown)
VH: EVMLVESGGGLVKPGGSLKLSCAASGFTFSSYAMSWVRQTPEKRLEWVATISSGGSYIYYLDSVKGRFTISRDNAKNTLYLQMSSLRSEDTAMYYCARPAYYGNPAMDYWGQGTSVTVSS
VL: DILMTQSQKFMSTSVGDRVSVTCKASQNVGTNVAWYQQKPGQSPKPLIYSASYRYSGVPDRFTGSGSGTDFTLTISNVQSEDLAEYFCQQYNSYPLYTFGGGTKLEIK
For the molecule B1, the EC50 in assay [1] is 0.53 nM; in assay [2], 1.18 nM; in assay [3], 1.18 nM. The “Ratio c/h (EC50 on cCEACAM5 against EC50 on hCEACAM5)” value (shortened to “Ratio c/h”) in assay [2] is 2.2.

B2: antibody MAb3 (antibody, IgG1, V domains shown)
VH: EVKLVESGGGLVKPGGSLTLPCAASGFTFSRYAMSWVRQTPEKRLEWVASISSGGDTYYPDSVKGRFTVSRDNARNILFLQMSSLRSEDTGMYYCARVNYYDSSFLDWWGQGTTLTVSS
VL: DIVMTQSQRFMSTLEGDRVSVTCKASQNVGTNVAWYQQKPGQSPKALIYSASYRYSGVPDRFTGSGSGTDFTLTISNVQSEDLAEYFCQQYNNYPLYTFGGGTKLEIK
notes: Murine monoclonal from hybridoma, IgG1, kappa
Turning to B2, the concentration giving a half-maximal response (EC50) in assay [1] stood at 0.36 nM; in assay [2] it was 3.72 nM; in assay [4] it was 0.36 nM; in assay [3], 3.72 nM. Moreover, in assay [2], the “Ratio c/h” value worked out at 10.

B3: antibody MAb4 (antibody, IgG1, V domains shown)
VH: EVQLVESGGGLVKPGGSLKLSCAASGFTFSSYDMSWVRQTPEKRLEWVAFISSYGGRTYYADTVKGRFTISRDNAKNTLYLQMSSLKSEDTAMFYCAAHYFGTSGPFAYWGQGTLVTVSA
VL: DIQMTQSPASLSASVGETVTITCRASENIYSYFAWYQQKQGKSPQLLVYNAKILAEGVPSRFSGSGSGTQFSLKINSLQPEDFGTYYCQHHYGIPFTFGSGTKLELK
notes: as for B2
Consider B3, for which the half-maximal effective concentration (EC50) stood at 0.08 nM in assay [1], 0.05 nM in assay [2], 0.08 nM in assay [4] and 0.05 nM in assay [3]. Moreover, in assay [2], the “Ratio c/h” value stood at 0.6.

B4: antibody MAb5 (antibody, IgG1, V domains shown)
VH: ELQLVESGGVLVKPGGSLKLSCAASGFAFSSYDMSWVRQTPEKRLEWVTYINSGGGITYYPDTVKGRFTISRDNARNTLYLQMSSLKSEDTAIYYCTAHYFGSSGPFAYWGQGTLVTVSA
VL: DIQMTQSPASLSASVGETVTITCRASENIYSYLAWYQQKQGKSPQLLVYNAKTLTEGVPSRFSGSGSGTQFSLKINSLQPEDFGSYYCQHHYGTPFTFGSGTKLEIK
notes: as for B2
Turning to B4, the EC50 in assay [1] turned out to be 0.4 nM; in assay [2] it was 0.45 nM; in assay [4], 0.4 nM; in assay [3], 0.45 nM. In addition, the “Ratio c/h” value in assay [2] stood at 1.1.

B5: huMAb2-3 (antibody, human IgG1, kappa, V domains shown)
VH: EVQLQESGPGLVKPGGSLSLSCAASGFVFSSYDMSWVRQTPERGLEWVAYISSGGGITYAPSTVKGRFTVSRDNAKNTLYLQMNSLTSEDTAVYYCAAHYFGSSGPFAYWGQGTLVTVSS
VL: DIQMTQSPASLSASVGDRVTITCRASENIFSYLAWYQQKPGKSPKLLVYNTRTLAEGVPSRFSGSGSGTDFSLTISSLQPEDFATYYCQHHYGTPFTFGSGTKLEIKR
notes: Humanized MAb2, human IgG1 / Ckappa; also called MAb2_VL1cVH1a-IgG1
In turn, B5 came in with a 50% effective concentration (EC50) in assay [5] of 0.18 nM. In addition, the “percentage of binding compared to full binding with cynomolgus CEACAM5” value (from here on “percentage of binding”) in assay [6] was 0.3%; in assay [7], 0.4%.

B6: huMAb2-1 (antibody, V domains shown)
VH: EVQLQESGPGLVKPGGSLSLSCAASGFVFSSYDMSWVRQTPERRLEWVAYISSGGGITYFPSTVKGRFTVSRDNAKNTLYLQMNSLTSEDTAIYYCAAHYFGSSGPFAYWGQGTLVTVSA
VL: DIQMTQSPASLSASVGDTVTITCRASENIFSYLAWYQQKPGKSPKLLVYNTKTLAEGVPSRFSGSGSGTQFSLTISSLQPEDFGSYYCQHHYGTPFTFGSGTKLEIK
notes: Humanized MAb2 (VL1 + VH1) fused to human IgG1 and human Ckappa constant domains; also called MAb2_VL1VH1-IgG1; MAb2VL1VH1-IgG1
For the molecule B6, a half-maximal effect in assay [5] (EC50) was put at 0.22 nM. Also, the “percentage of binding” value in assay [6] and in assay [7] was 0.3% throughout.

B7: huMAb2-2 (antibody, V domains shown)
VH: EVQLQESGPGLVKPGGSLSLSCAASGFVFSSYDMSWVRQTPERGLEWVAYISSGGGITYAPSTVKGRFTVSRDNAKNTLYLQMNSLTSEDTAVYYCAAHYFGSSGPFAYWGQGTLVTVSS
VL: DIQMTQSPASLSASVGDRVTITCRASENIFSYLAWYQQKPGKSPKLLVYNTKTLAEGVPSRFSGSGSGTDFSLTISSLQPEDFATYYCQHHYGTPFTFGSGTKLEIK
notes: Humanized MAb2 (VL1a + VH1a) fused to human IgG1 and human Ckappa constant domains; also called MAb2_VL1aVH1a-IgG1; MA2_VL1aVH1a-IgG1
In turn, B7 returned an EC50 in assay [5] of 0.2 nM. Further, the “percentage of binding” value in assay [6] and in assay [7] was 0.3% in each case.

B8: chMAb2 (antibody, human IgG1, kappa, V domains shown)
VH: EVQLQESGGVLVKPGGSLKLSCAASGFVFSSYDMSWVRQTPEKRLEWVAYISSGGGITYFPDTVQGRFTVSRDNAKNTLYLQMNSLKSEDTAIYYCAAHYFGSSGPFAYWGQGTLVTVSA
VL: DIQMTQSPASLSASVGETVTITCRASENIFSYLAWYQQKQGKSPQLLVYNTKTLAEGVPSRFSGSGSGTQFSLKINSLQPEDFGSYYCQHHYGTPFTFGSGTKLEIKR
notes: Chimeric, human IgG1, Ck isotype; also called MAb2-IgG1; chimeric MAb2
In the case of B8, the midpoint of the response in assay [5], the EC50, lay at 0.16 nM. Besides, the “percentage of binding” value in assay [6] was found to be 0.2%; in assay [7] it was 0.3%.

B9: huMAb2-4 (antibody, human IgG1, kappa, V domains shown)
VH: EVQLQESGPGLVKPGGSLSLSCAASGFVFSSYDMSWVRQTPERRLEWVAYISSGGGITYFPSTVKGRFTVSRDNAKNTLYLQMNSLTSEDTAIYYCAAHYFGSSGPFAYWGQGTLVTVSA
VL: DIQMTQSPASLSASVGDTVTITCRASENIFSYLAWYQQKPGKSPKLLVYNTRTLAEGVPSRFSGSGSGTQFSLTISSLQPEDFGSYYCQHHYGTPFTFGSGTKLEIKR
notes: Humanized MAb2, human IgG1 / Ckappa; also called MAb2_VL1d VH1-IgG1; MAb2_VL1dVH1-IgG1
For B9, the response in assay [5] was half-maximal at 0.22 nM (EC50). Also, the “percentage of binding” value in assay [6] and in assay [7] was 0.3% each time.
